Here are results for 2 proteins from US20030032788.

Positions count from the first letter of the chain named.

This data set deals with T1, endogenous rat mitochondrial aldehyde dehydrogenase (ALDH2) of H4-II-E-C3 hepatoma cells, P11884.
T1 chain: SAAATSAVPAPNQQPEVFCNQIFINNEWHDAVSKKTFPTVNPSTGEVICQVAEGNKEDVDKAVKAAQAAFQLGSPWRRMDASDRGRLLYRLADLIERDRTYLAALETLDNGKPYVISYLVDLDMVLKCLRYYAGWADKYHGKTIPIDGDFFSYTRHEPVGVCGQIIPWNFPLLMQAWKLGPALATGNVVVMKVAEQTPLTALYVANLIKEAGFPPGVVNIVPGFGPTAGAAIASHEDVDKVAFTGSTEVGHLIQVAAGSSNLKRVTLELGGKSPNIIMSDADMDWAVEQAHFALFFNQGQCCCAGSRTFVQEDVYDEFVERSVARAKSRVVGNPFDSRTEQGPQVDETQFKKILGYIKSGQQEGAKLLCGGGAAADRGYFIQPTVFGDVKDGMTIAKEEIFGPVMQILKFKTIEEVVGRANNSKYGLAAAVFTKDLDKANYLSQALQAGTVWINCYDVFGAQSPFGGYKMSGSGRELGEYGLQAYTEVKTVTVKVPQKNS

B1: human ALDH2-2 (mutant) monomer, expressed from the retroviral vector pLHCK3'UT in rat hepatoma H4-II-E-C3 cells (protein)
chain: SAAATQAVPAPNQQPEVFCNQIFINNEWHDAVSRKTFPTVNPSTGEVICQVAEGDKEDVDKAVKAARAAFQLGSPWRRMDASHRGRLLNRLADLIERDRTYLAALETLDNGKPYVISYLVDLDMVLKCLRYYAGWADKYHGKTIPIDGDFFSYTRHEPVGVCGQIIPWNFPLLMQAWKLGPALATGNVVVMKVAEQTPLTALYVANLIKEAGFPPGVVNIVPGFGPTAGAAIASHEDVDKVAFTGSTEIGRVIQVAAGSSNLKRVTLELGGKSPNIIMSDADMDWAVEQAHFALFFNQGQCCCAGSRTFVQEDIYDEFVERSVARAKSRVVGNPFDSKTEQGPQVDETQFKKILGYINTGKQEGAKLLCGGGIAADRGYFIQPTVFGDVQDGMTIAKEEIFGPVMQILKFKTIEEVVGRANNSTYGLAAAVFTKDLDKANYLSQALQAGTVWVNCYDVFGAQSPFGGYKMSGSGRELGEYGLQAYTKVKTVTVKVPQKNS
As for B1, the ALDH2 specific activity of ALDH2-2 transduced H4 clones (lower end of range) (nanomoles/minute/milligram protein) was 15; the ALDH2 specific activity of ALDH2-2 transduced H4 clones (mean ± SEM, N=22) (nanomoles/minute/milligram protein) came out at 40.4; the ALDH2 specific activity of ALDH2-2 transduced H4 clones (upper end of range) (nanomoles/minute/milligram protein) is 54; the “reduction in hepatocyte ALDH2 activity” value is recorded as “leads to a >60% reduction in hepatocyte ALDH2 activity”.

B2: human ALDH2-1 (wild-type) monomer, expressed from the retroviral vector pLNCE in rat hepatoma H4-II-E-C3 cells (protein)
chain: B1 chain with K487E
As to B2, the ALDH2 specific activity of ALDH2-1 transduced H4 clones (lower end of range) (nanomoles/minute/milligram protein) worked out at 42; the ALDH2 specific activity of ALDH2-1 transduced H4 clones (mean ± SEM, N=15) (nanomoles/minute/milligram protein) came out at 54.7; the ALDH2 specific activity of ALDH2-1 transduced H4 clones (upper end of range) (nanomoles/minute/milligram protein) came to 78; the “increase of ALDH activity relative to the empty vector control group” value is “ALDH activity was increased by as much as 52% in some ALDH2-1 transduced clones”.
